Patent US12097241B2, “Methods of treating kidney failure, and/or improving or stablizing renal function using modified relaxin polypeptides” (BRISTOL-MYERS SQUIBB COMPANY, priority 2017, dated 2024)
Like-named read-outs stand apart in the source and are kept apart here.

How the values were obtained:
human RXFP1 receptor = biological target: T1, human RXFP1 receptor (Homo sapiens, UniProt Q9HBX9); test: Intracellular cAMP accumulation assay; assay type: cell-based
T1 construct: expressed in transfected cells
T1 sequence (Q9HBX9 1-757): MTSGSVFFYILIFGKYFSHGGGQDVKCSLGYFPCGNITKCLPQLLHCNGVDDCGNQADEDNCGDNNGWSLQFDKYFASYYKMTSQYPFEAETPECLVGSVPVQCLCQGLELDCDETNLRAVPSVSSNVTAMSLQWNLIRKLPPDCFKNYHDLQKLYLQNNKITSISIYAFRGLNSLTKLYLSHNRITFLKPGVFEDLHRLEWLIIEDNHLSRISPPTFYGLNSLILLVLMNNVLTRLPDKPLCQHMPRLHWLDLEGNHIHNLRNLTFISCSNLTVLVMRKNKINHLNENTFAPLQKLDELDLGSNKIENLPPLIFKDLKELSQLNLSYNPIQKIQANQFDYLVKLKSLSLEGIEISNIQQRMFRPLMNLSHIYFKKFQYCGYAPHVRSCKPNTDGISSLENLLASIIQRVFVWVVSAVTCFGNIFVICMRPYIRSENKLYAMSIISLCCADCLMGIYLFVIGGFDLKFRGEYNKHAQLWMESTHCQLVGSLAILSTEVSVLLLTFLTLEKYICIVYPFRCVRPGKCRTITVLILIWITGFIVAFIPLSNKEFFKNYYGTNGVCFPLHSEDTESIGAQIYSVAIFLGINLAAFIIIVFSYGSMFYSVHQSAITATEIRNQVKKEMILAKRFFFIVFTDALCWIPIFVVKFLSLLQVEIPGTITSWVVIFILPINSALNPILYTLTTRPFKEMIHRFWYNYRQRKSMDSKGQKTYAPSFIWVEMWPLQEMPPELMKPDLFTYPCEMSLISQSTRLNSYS
Protocol: The intracellular cAMP accumulation assay described herein was used to assess relaxin bioactivity and potency.
CHO-K1 cells (ATCC; Cat. #CRL-9618) stably expressing the human RXFP1 receptor (locus number LOC59350) (10,000/well) were plated into 96-well plates and cultured overnight at 37° C. and 5% CO2. On the following day, the medium was removed from the wells and the cells were stimulated with the addition of ligand (relaxin polypeptide) in 50 uL buffer (1×HBSS, 5 mM HEPES (7.2), 0.5 mM IBMX, 0.1% BSA); incubation was for 10 min at 37° C. Unstimulated cells were utilized as reference controls. Reactions were terminated and cellular cAMP levels were measured using the Homogeneous Time Resolved Fluorescence (HTRF) Dynamic 2 cAMP kit (CisBio, #62AM4PEC) according to the manufacturer's protocol. Plates were analyzed using an EnVision 2104 Multilablel Reader (PerkinElmer). Signal was expressed in terms of the ratio of fluorescence intensity @ 665 nm/fluorescence intensity @620 nm×10,000. The concentration of cAMP in the sample was determined by comparison with standard curves generated from known concentrations of cAMP. The potency of each relaxin was determined using a ten-point concentration response curves which was performed in duplicate. The data were analyzed using Microsoft Excel, Version 2013 Xlfit software. Effective concentration 50 (EC50) values, the point at which the response was one-half maximal, were calculated using a four-parameter logistic equation that allowed for a variable-slope (Table 3).

[1] = In vivo pharmacokinetic (PK) studies in rats; set-up: species or system Sprague-Dawley rats; details: rat, male Sprague-Dawley rats, single SC dose 1.0 mg/kg, serum ELISA; for AUC(0-inf): read-out: Rat PK AUC Total; for level at time molar at 24 h: read-out: Rat PK C24
Summary of the method: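 Male Sprague-Dawley rats (n=3) given a single 1 mg/kg IV or SC dose of relaxin constructs in 20 mM histidine, 750 mM NaCl, pH 6.0; jugular serum sampled to 72 h. Serum relaxin by ELISA; Cmax, AUCinf, C24 and half-life from non-compartmental analysis of individual profiles.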

[2] = CHO-K1 cells stably expressing human RXFP1, 10 min at 37° C., HTRF cAMP, average, read-out: hRXFP1/CHO-K1 cAMP EC50 (nM, avg)

Structure (SMILES) | EC50 (human RXFP1 receptor; [2]) | AUC(0-inf) [1] | level at time molar at 24 h [1] | EC50 (human RXFP1 receptor)
CC[C@H](C)[C@@H]1NC(=O)[C@H](C)NC(=O)[C@H]([C@@H](C)CC)NC(=O)[C@H](CCC(N)=O)NC(=O)[C@H](C)NC(=O)[C@H](CCCNC(=N)N)NC(=O)[C@H](C(C)C)NC(=O)[C@H](CC(C)C)NC(=O)[C@H](CCC(=O)O)NC(=O)[C@H](CCCNC(=N)N)NC(=O)CNC(=O)[C@@H](NC(=O)[C@H](CC(C)C)NC(=O)[C@H](CCCCN)NC(=O)[C@@H](NC(=O)[C@@H](NC(=O)[C@H](CCC(=O)O)NC(=O)[C@H](CCC(=O)O)NC(=O)[C@H](CCSC)NC(=O)[C@H](Cc2c[nH]c3ccccc23)NC(=O)[C@H](CO)NC(=O)[C@H](C)N)C(C)C)[C@@H](C)CC)CSSC[C@@H]2NC(=O)[C@@H](NC(=O)[C@H](CCCCN)NC(=O)[C@H](CC(N)=O)NC(=O)[C@H](C)NC(=O)[C@H](CC(C)C)NC(=O)[C@H](C)NC(=O)[C@H](CO)NC(=O)[C@H](Cc3ccc(O)cc3)NC(=O)[C@H](CC(C)C)NC(=O)[C@@H](N)Cc3ccc(C(C)=NOCCNC(=O)[C@H](CCCCN)NC(=O)[C@H](CCCCN)NC(=O)[C@H](CCCCN)NC(=O)CNC(=O)CNC(=O)CNC(=O)CC[C@H](NC(=O)CCCCCCCCCCCCC(=O)O)C(=O)O)cc3)CSSC[C@H](NC(=O)CNC(=O)[C@H](C(C)C)NC(=O)[C@H](Cc3c[nH]cn3)NC2=O)C(=O)N[C@@H]([C@@H](C)O)C(=O)N[C@@H](CCCCN)C(=O)N[C@@H](CCCNC(=N)N)C(=O)N[C@@H](CO)C(=O)N[C@@H](CC(C)C)C(=O)N[C@@H](C)C(=O)N[C@@H](CCCNC(=N)N)C(=O)N[C@@H](Cc2ccccc2)C(=O)N[C@H](C(=O)O)CSSC[C@@H](C(=O)NCC(=O)N[C@@H](CCSC)C(=O)N[C@@H](CO)C(=O)N[C@H](C(=O)N[C@@H](Cc2c[nH]c3ccccc23)C(=O)N[C@@H](CO)C(=O)O)[C@@H](C)O)NC1=O [AQ1-KKKGGG-Glu^γ-C13-COOH] | 0.09 nM | 0.258 µM·h | 0.24 nM | 
CC[C@H](C)[C@@H]1NC(=O)[C@H](C)NC(=O)[C@H]([C@@H](C)CC)NC(=O)[C@H](CCC(N)=O)NC(=O)[C@H](C)NC(=O)[C@H](CCCNC(=N)N)NC(=O)[C@H](C(C)C)NC(=O)[C@H](CC(C)C)NC(=O)[C@H](CCC(=O)O)NC(=O)[C@H](CCCNC(=N)N)NC(=O)CNC(=O)[C@@H](NC(=O)[C@H](CC(C)C)NC(=O)[C@H](CCCCN)NC(=O)[C@@H](NC(=O)[C@@H](NC(=O)[C@H](CCC(=O)O)NC(=O)[C@H](CCC(=O)O)NC(=O)[C@H](CCSC)NC(=O)[C@H](Cc2c[nH]c3ccccc23)NC(=O)[C@H](CO)NC(=O)[C@H](C)N)C(C)C)[C@@H](C)CC)CSSC[C@@H]2NC(=O)[C@@H](NC(=O)[C@H](CCCCN)NC(=O)[C@H](CC(N)=O)NC(=O)[C@H](C)NC(=O)[C@H](CC(C)C)NC(=O)[C@H](C)NC(=O)[C@H](CO)NC(=O)[C@H](Cc3ccc(O)cc3)NC(=O)[C@H](CC(C)C)NC(=O)[C@@H](N)Cc3ccc(C(C)=NOCCNC(=O)[C@H](CCCCN)NC(=O)[C@H](CCCCN)NC(=O)[C@H](CCCCN)NC(=O)[C@H](CO)NC(=O)CNC(=O)CNC(=O)[C@H](CO)NC(=O)CNC(=O)CNC(=O)CC[C@H](NC(=O)CCCCCCCCCCCCC(=O)O)C(=O)O)cc3)CSSC[C@H](NC(=O)CNC(=O)[C@H](C(C)C)NC(=O)[C@H](Cc3c[nH]cn3)NC2=O)C(=O)N[C@@H]([C@@H](C)O)C(=O)N[C@@H](CCCCN)C(=O)N[C@@H](CCCNC(=N)N)C(=O)N[C@@H](CO)C(=O)N[C@@H](CC(C)C)C(=O)N[C@@H](C)C(=O)N[C@@H](CCCNC(=N)N)C(=O)N[C@@H](Cc2ccccc2)C(=O)N[C@H](C(=O)O)CSSC[C@@H](C(=O)NCC(=O)N[C@@H](CCSC)C(=O)N[C@@H](CO)C(=O)N[C@H](C(=O)N[C@@H](Cc2c[nH]c3ccccc23)C(=O)N[C@@H](CO)C(=O)O)[C@@H](C)O)NC1=O [AQ1-KKKSGGSGG-Glu^γ-C13-COOH] |  | 0.264 µM·h | 0.21 nM | 0.14 nM
CC[C@H](C)[C@@H]1NC(=O)[C@H](C)NC(=O)[C@H]([C@@H](C)CC)NC(=O)[C@H](CCC(N)=O)NC(=O)[C@H](C)NC(=O)[C@H](CCCNC(=N)N)NC(=O)[C@H](C(C)C)NC(=O)[C@H](CC(C)C)NC(=O)[C@H](CCC(=O)O)NC(=O)[C@H](CCCNC(=N)N)NC(=O)CNC(=O)[C@@H](NC(=O)[C@H](CC(C)C)NC(=O)[C@H](CCCCN)NC(=O)[C@@H](NC(=O)[C@@H](NC(=O)[C@H](CCC(=O)O)NC(=O)[C@H](CCC(=O)O)NC(=O)[C@H](CCSC)NC(=O)[C@H](Cc2c[nH]c3ccccc23)NC(=O)[C@H](CO)NC(=O)[C@H](C)N)C(C)C)[C@@H](C)CC)CSSC[C@@H]2NC(=O)[C@@H](NC(=O)[C@H](CCCCN)NC(=O)[C@H](CC(N)=O)NC(=O)[C@H](C)NC(=O)[C@H](CC(C)C)NC(=O)[C@H](C)NC(=O)[C@H](CO)NC(=O)[C@H](Cc3ccc(O)cc3)NC(=O)[C@H](CC(C)C)NC(=O)[C@@H](N)Cc3ccc(C(C)=NOCCNC(=O)[C@H](CCCCN)NC(=O)[C@H](CCCCN)NC(=O)[C@H](CO)NC(=O)CNC(=O)CNC(=O)[C@H](CO)NC(=O)CNC(=O)CNC(=O)[C@H](CCC(=O)O)NC(=O)[C@H](CCC(=O)O)NC(=O)CC[C@H](NC(=O)CCCCCCCCCCCCC(=O)O)C(=O)O)cc3)CSSC[C@H](NC(=O)CNC(=O)[C@H](C(C)C)NC(=O)[C@H](Cc3c[nH]cn3)NC2=O)C(=O)N[C@@H]([C@@H](C)O)C(=O)N[C@@H](CCCCN)C(=O)N[C@@H](CCCNC(=N)N)C(=O)N[C@@H](CO)C(=O)N[C@@H](CC(C)C)C(=O)N[C@@H](C)C(=O)N[C@@H](CCCNC(=N)N)C(=O)N[C@@H](Cc2ccccc2)C(=O)N[C@H](C(=O)O)CSSC[C@@H](C(=O)NCC(=O)N[C@@H](CCSC)C(=O)N[C@@H](CO)C(=O)N[C@H](C(=O)N[C@@H](Cc2c[nH]c3ccccc23)C(=O)N[C@@H](CO)C(=O)O)[C@@H](C)O)NC1=O [AQ1-KKSGGSGGEE-Glu^γ-C13-COOH] |  | 0.676 µM·h | 0.09 nM | 0.16 nM
CC[C@H](C)[C@@H]1NC(=O)[C@H](C)NC(=O)[C@H]([C@@H](C)CC)NC(=O)[C@H](CCC(N)=O)NC(=O)[C@H](C)NC(=O)[C@H](CCCNC(=N)N)NC(=O)[C@H](C(C)C)NC(=O)[C@H](CC(C)C)NC(=O)[C@H](CCC(=O)O)NC(=O)[C@H](CCCNC(=N)N)NC(=O)CNC(=O)[C@@H](NC(=O)[C@H](CC(C)C)NC(=O)[C@H](CCCCN)NC(=O)[C@@H](NC(=O)[C@@H](NC(=O)[C@H](CCC(=O)O)NC(=O)[C@H](CCC(=O)O)NC(=O)[C@H](CCSC)NC(=O)[C@H](Cc2c[nH]c3ccccc23)NC(=O)[C@H](CO)NC(=O)[C@H](C)N)C(C)C)[C@@H](C)CC)CSSC[C@@H]2NC(=O)[C@@H](NC(=O)[C@H](CCCCN)NC(=O)[C@H](CC(N)=O)NC(=O)[C@H](C)NC(=O)[C@H](CC(C)C)NC(=O)[C@H](C)NC(=O)[C@H](CO)NC(=O)[C@H](Cc3ccc(O)cc3)NC(=O)[C@H](CC(C)C)NC(=O)[C@@H](N)Cc3ccc(C(C)=NOCCNC(=O)[C@H](CCCNC(=N)N)NC(=O)CNC(=O)CNC(=O)[C@H](CCC(=O)O)NC(=O)[C@H](CCC(=O)O)NC(=O)[C@H](CCCCN)NC(=O)[C@H](CCCCN)NC(=O)[C@H](CCCCN)NC(=O)[C@H](CCC(=O)O)NC(=O)[C@H](CCCCN)NC(=O)[C@H](CCC(=O)O)NC(=O)[C@H](CCCCN)NC(=O)CC[C@H](NC(=O)CCCCCCCCCCCCC(=O)O)C(=O)O)cc3)CSSC[C@H](NC(=O)CNC(=O)[C@H](C(C)C)NC(=O)[C@H](Cc3c[nH]cn3)NC2=O)C(=O)N[C@@H]([C@@H](C)O)C(=O)N[C@@H](CCCCN)C(=O)N[C@@H](CCCNC(=N)N)C(=O)N[C@@H](CO)C(=O)N[C@@H](CC(C)C)C(=O)N[C@@H](C)C(=O)N[C@@H](CCCNC(=N)N)C(=O)N[C@@H](Cc2ccccc2)C(=O)N[C@H](C(=O)O)CSSC[C@@H](C(=O)NCC(=O)N[C@@H](CCSC)C(=O)N[C@@H](CO)C(=O)N[C@H](C(=O)N[C@@H](Cc2c[nH]c3ccccc23)C(=O)N[C@@H](CO)C(=O)O)[C@@H](C)O)NC1=O [AQ1-RGGEEKKKEKEK-Glu^γ-C13-COOH] | 0.29 nM | 0.987 µM·h | 0.1 nM | 
